Experimental data: paper PMC7980507 (Protein Science : A Publication of the Protein Society, 2021)

B1: EY6A (antibody, V domains shown)
VH: EVQLVESGGGVVQPGRSLRLSCAASAFTFSSYDMHWVRQAPGKGLEWVAVISYDGSNKYYADSVKGRFTISRDNSKNTLYLQMNSLRAEDTAVYYCAKDGGKLWVYYFDYWGQGTLVTVSS
VL: not shown
B2: CB6 (antibody, V domains shown)
VH: EVQLVESGGGLVQPGGSLRLSCAASGFTVSSNYMSWVRQAPGKGLEWVSVIYSGGSTFYADSVKGRFTISRDNSMNTLFLQMNSLRAEDTAVYYCARVLPMYGDYLDYWGQGTLVTVSS
VL: not shown

Target: His‐tagged SARS‐CoV‐2 spike receptor binding domain (RBD) (SARS-CoV-2, UniProt P0DTC2)
Assay: BLI

Binder | binding result
B1 | binds
B2 | binds
